# Test results from ChEMBL document CHEMBL1687818, “Mechanistic studies of the inactivation of TEM-1 and P99 by NXL104, a novel non-beta-lactam beta-lactamase inhibitor” (Antimicrob Agents Chemother, 2010).
# B1: Beta-lactamase (Enterobacter cloacae), P05364 (protein)
# chain: MMRKSLCCALLLGISCSALATPVSEKQLAEVVANTITPLMKAQSVPGMAVAVIYQGKPHYYTFGKADIAANKPVTPQTLFELGSISKTFTGVLGGDAIARGEISLDDAVTRYWPQLTGKQWQGIRMLDLATYTAGGLPLQVPDEVTDNASLLRFYQNWQPQWKPGTTRLYANASIGLFGALAVKPSGMPYEQAMTTRVLKPLKLDHTWINVPKAEEAHYAWGYRDGKAVRVSPGMLDAQAYGVKTNVQDMANWVMANMAPENVADASLKQGIALAQSRYWRIGSMYQGLGWEMLNWPVEANTVVEGSDSKVALAPLPVAEVNPPAPPVKASWVHKTGSTGGFGSYVAFIPEKQIGIVMLANTSYPNPARVEAAYHILEALQ
# Substrate: C[C@]1(Cn2ccnn2)[C@H](C(=O)O)N2C(=O)C[C@H]2S1(=O)=O
# Conditions: Enterobacter cloacae
# Description: Activity of Enterobacter cloacae beta-lactamase P99 by spectrophotometry
protein,measurement,value
B1,Km,300 µM
